The values below come from paper PMC9896810, “Crk proteins activate the Rap1 guanine nucleotide exchange factor C3G by segregated adaptor-dependent and -independent mechanisms” (Cell Communication and Signaling : CCS, 2023).

In test [1] the target is T1, C3G (full-length, residues 4-1077) (human, UniProt Q13905-1 4-1077).
T1 construct: also called C3G WT; RapGEF1; source: E. coli BL21 (DE3), purified (IMAC, TEV digestion, reversed IMAC, SEC); not shown: His, N-terminal, cleaved; Halo, N-terminal, cleaved
T1 sequence (looked up): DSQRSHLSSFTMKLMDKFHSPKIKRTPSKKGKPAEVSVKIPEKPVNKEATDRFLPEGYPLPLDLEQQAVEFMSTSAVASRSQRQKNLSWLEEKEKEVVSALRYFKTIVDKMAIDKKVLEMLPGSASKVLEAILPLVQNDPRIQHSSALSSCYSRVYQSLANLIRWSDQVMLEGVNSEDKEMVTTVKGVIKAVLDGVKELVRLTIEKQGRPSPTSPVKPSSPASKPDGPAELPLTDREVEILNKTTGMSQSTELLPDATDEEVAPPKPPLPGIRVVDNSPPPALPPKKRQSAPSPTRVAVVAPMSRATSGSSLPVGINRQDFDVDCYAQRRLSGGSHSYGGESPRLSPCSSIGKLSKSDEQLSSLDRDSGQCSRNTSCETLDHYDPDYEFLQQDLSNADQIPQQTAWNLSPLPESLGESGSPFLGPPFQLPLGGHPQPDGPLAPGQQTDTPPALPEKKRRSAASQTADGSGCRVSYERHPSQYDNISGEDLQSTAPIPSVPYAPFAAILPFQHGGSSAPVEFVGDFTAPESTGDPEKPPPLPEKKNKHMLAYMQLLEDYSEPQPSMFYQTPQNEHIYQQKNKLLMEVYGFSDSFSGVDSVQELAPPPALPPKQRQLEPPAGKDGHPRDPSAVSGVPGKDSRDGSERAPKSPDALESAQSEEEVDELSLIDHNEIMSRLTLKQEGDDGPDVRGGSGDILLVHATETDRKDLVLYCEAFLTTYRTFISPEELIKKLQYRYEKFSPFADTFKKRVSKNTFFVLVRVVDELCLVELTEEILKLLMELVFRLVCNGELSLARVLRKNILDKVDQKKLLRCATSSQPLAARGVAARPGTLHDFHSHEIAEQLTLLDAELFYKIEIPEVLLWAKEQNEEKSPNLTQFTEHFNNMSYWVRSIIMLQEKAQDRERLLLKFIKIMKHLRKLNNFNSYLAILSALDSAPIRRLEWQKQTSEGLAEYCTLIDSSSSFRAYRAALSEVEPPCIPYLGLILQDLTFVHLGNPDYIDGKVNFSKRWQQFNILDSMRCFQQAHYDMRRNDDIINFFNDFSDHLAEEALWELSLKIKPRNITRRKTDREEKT
As to the kind of experiment: ITC; C3G in the cell titrated with CrkL in the syringe, 25 °C, 300 mM NaCl, pH 7.5; each titration analysed individually with Origin ITC, independent-site model. The conditions noted are these: both partners purified. On the technique in general: In ITC the heat of successive injections is recorded.

Test [2] concerns the target T1, C3G (full-length, residues 4-1077). As to the kind of experiment: ITC; C3G or pC3G in the cell titrated with the Crk protein, 25 °C, 300 mM NaCl, pH 7.5; global fit of three titrations with SEDPHAT, three symmetric binding sites, microscopic kd. The conditions noted are these: both partners purified.

“And” between values parts separate entries of the source, which are not always exact repeats. Equal values may be shown once.

B1: CrkL (full-length) (natural protein, human, UniProt P46109 1-303, looked up)
chain: MSSARFDSSDRSAWYMGPVSRQEAQTRLQGQRHGMFLVRDSSTCPGDYVLSVSENSRVSHYIINSLPNRRFKIGDQEFDHLPALLEFYKIHYLDTTTLIEPAPRYPSPPMGSVSAPNLPTAEDNLEYVRTLYDFPGNDAEDLPFKKGEILVIIEKPEEQWWSARNKDGRVGMIPVPYVEKLVRSSPHGKHGNRNSNSYGIPEPAHAYAQPQTTTPLPAVSGSPGAAITPLPSTQNGPVFAKAIQKRVPCAYDKTALALEVGDIVKVTRMNINGQWEGEVNGRKGLFPFTHVKIFDPQNPDENE
notes: human CrkL, residues 1-303, in pETEV15b; also called Crk-like protein; source: E. coli BL21 (DE3), purified (IMAC, TEV digestion, SEC); not shown: His, N-terminal, cleaved
For the molecule B1, in test [1], the dissociation constant Kd came out at 3.3 µM; the “stoichiometry N” value is 3.2 and 2.8 and 2.9.

B2: CrkL-SH3N (domain or fragment, human, UniProt P46109 125-182, looked up)
chain: LEYVRTLYDFPGNDAEDLPFKKGEILVIIEKPEEQWWSARNKDGRVGMIPVPYVEKLV
notes: human CrkL, SH3N domain, residues 125-182, in pETEV15b; source: E. coli BL21 (DE3), purified (IMAC, TEV digestion, SEC); not shown: His, N-terminal, cleaved
B2 returned an equilibrium dissociation constant (Kd) in test [2] of 1.6 µM.

A word on the Kd: it is a measure of binding affinity in units of concentration. Lower therefore signals a tighter complex. What is called stoichiometry N is a count of units in the complex or per binding partner.
